US10967068B2, “Stability-modulating linkers for use with antibody drug conjugates” (priority 2014, dated 2021)
*1 amine or outer side, *2 acyl side, *3 side chain or, on linkers, in order; H or OH if unused. Where a SMILES comes first, the peptide text is derived from it. [ ]: non-standard residue; d: D form. The star is where a group is joined. Dolaproine = CO[C@@H]([C@@H]1CCCN1)[C@@H](C)C(=O)O; Dil = CC[C@H](C)[C@H](NC)[C@@H](CC(=O)O)OC; Benzenesulfonyl = O=S(=O)(c1ccccc1)*; PABC = O=C(OCc1ccc(N[*:1])cc1)[*:2]; Doe = c1ccc(C[C@H](N*)c2nccs2)cc1; Glyceroyl(2S) = O=C([C@@H](O)CO)*; Cit = NC(=O)NCCC[C@H](N)C(=O)O; Propanoyl(3-OH) = O=C(CCO)*; dLac = C[C@@H](O)C(=O)O; Lac = C[C@H](O)C(=O)O; Aib = CC(C)(N)C(=O)O; Ms = CS(=O)(=O)*

Assay: In Vitro Stability Assay—Mouse Plasma
Assay type: in vitro ADME
Conditions: for DAR: before plasma incubation
[1] = attachment position L11B, % DAR remaining after plasma 3 or 4.5 days
[2] = Trop-2 antibody attachment position TG6, HIC or mass spectrometry
[3] = attachment position TG6, % DAR remaining after incubation in plasma for 3 or 4.5 days
[4] = attachment position TG6, plasma species not printed in table (values match mouse plasma, Table 4)

Experimental: 100-200 ug of ADC were incubated in mouse plasma (provided by Bioreclamation) supplemented with 1×PBS to the final ADC concentration of 0.125 mg/mL. Following incubation for 3-7 days, samples were diluted with an equal volume of 1×PBS, and ADCs were isolated using Trop2 antigen coupled to CNBr-activated Sepharose (GE Healthcare) using standard protocols. Drug-antibody ratios were assessed before and after in vitro exposure using HIC methods and mass spectrometry.
DAR values for conjugates purified after plasma incubation were compared to DAR values prior to plasma treatment.

Row | Structure (SMILES) | DAR after plasma incubation for 3 to 4.5 days (attachment position L11B) | Conjugate stability (%) [1] [%] | DAR (attachment position L11B) | DAR [2] | Conjugate stability (%) [3] [%] | DAR after plasma incubation for 3 to 4.5 days [4]
1 | CC[C@H](C)[C@@H]([C@@H](CC(=O)N1CCC[C@H]1[C@H](OC)[C@@H](C)C(=O)N[C@@H](Cc1ccccc1)c1nccs1)OC)N(C)C(=O)[C@@H](NC(=O)C(C)(C)NC(=O)OCc1ccc(NC(=O)[C@H](CCCNC(N)=O)NC(=O)[C@@H](NC(=O)[C@H](CCCCN)NC(=O)CNC(C)=O)C(C)C)cc1)C(C)C [Example 37, N-acetylglycyl-L-lysyl-L-valyl-N-{4-[(8S,11S,12R)-11-[(2S)-butan-2-yl]-12-(2-{(2S)-2-[(1R,2R)-1-methoxy-2-methyl-3-oxo-3-{[(1S)-2-phenyl-1-(1,3-thiazol-2-yl)ethyl]amino}propyl]pyrrolidin-1-yl}-2-oxoethyl)-5,5,10-trimethyl-3,6,9-trioxo-8-(propan-2-yl)-2,13-dioxa-4,7,10-triazatetradec-1-yl]phenyl}-N˜5˜-carbamoyl-L-ornithinamide] (Ac-GKV[Cit][PABC][Aib]V[Dil][Dolaproine]-Doe) | 0.85 | 44 | 1.94 | – | – | –
2 | CC[C@H](C)[C@@H]([C@@H](CC(=O)N1CCC[C@H]1[C@H](OC)[C@@H](C)C(=O)N[C@@H](Cc1ccccc1)c1nccs1)OC)N(C)C(=O)[C@@H](NC(=O)C(C)(C)NC(=O)OCc1ccc(NC(=O)[C@H](CCCNC(N)=O)NC(=O)[C@@H](NC(=O)[C@H](CCCCN)NC(=O)[C@@H](N)CO)C(C)C)cc1)C(C)C [Example 38, L-seryl-L-lysylvalyl-N-{4-[(8S,11S,12R)-11-[(2S)-butan-2-yl]-12-(2-{(2S)-2-[(1R,2R)-1-methoxy-2-methyl-3-oxo-3-{[(1S)-2-phenyl-1-(1,3-thiazol-2-yl)ethyl]amino}propyl]pyrrolidin-1-yl}-2-oxoethyl)-5,5,10-trimethyl-3,6,9-trioxo-8-(propan-2-yl)-2,13-dioxa-4,7,10-triazatetradec-1-yl]phenyl}-N˜5˜-carbamoyl-L-ornithinamide] (H-SKV[Cit][PABC][Aib]V[Dil][Dolaproine]-Doe) | 1.32 | 90 | 1.47 | – | – | –
3 | CC[C@H](C)[C@@H]([C@@H](CC(=O)N1CCC[C@H]1[C@H](OC)[C@@H](C)C(=O)N[C@@H](Cc1ccccc1)c1nccs1)OC)N(C)C(=O)[C@@H](NC(=O)C(C)(C)NC(=O)OCc1ccc(NC(=O)[C@H](CCCNC(N)=O)NC(=O)[C@@H](NC(=O)[C@H](CCCCN)NC(=O)[C@H](N)CO)C(C)C)cc1)C(C)C [Example 39, D-seryl-L-lysylvalyl-N-{4-[(8S,11S,12R)-11-[(2S)-butan-2-yl]-12-(2-{(2S)-2-[(1R,2R)-1-methoxy-2-methyl-3-oxo-3-{[(1S)-2-phenyl-1-(1,3-thiazol-2-yl)ethyl]amino}propyl]pyrrolidin-1-yl}-2-oxoethyl)-5,5,10-trimethyl-3,6,9-trioxo-8-(propan-2-yl)-2,13-dioxa-4,7,10-triazatetradec-1-yl]phenyl}-N˜5˜-carbamoyl-L-ornithinamide] (H-[dS]KV[Cit][PABC][Aib]V[Dil][Dolaproine]-Doe) | 1.53 | 82 | 1.87 | – | – | –
4 | CC[C@H](C)[C@@H]([C@@H](CC(=O)N1CCC[C@H]1[C@H](OC)[C@@H](C)C(=O)N[C@@H](Cc1ccccc1)c1nccs1)OC)N(C)C(=O)[C@@H](NC(=O)C(C)(C)NC(=O)OCc1ccc(NC(=O)[C@H](CCCNC(N)=O)NC(=O)[C@@H](NC(=O)[C@H](CCCCN)NC(=O)[C@H](C)O)C(C)C)cc1)C(C)C [Example 40, N˜2˜-[(2S)-2-hydroxypropanoyl]-L-lysylvalyl-N-{4-[(8S,11S,12R)-11-[(2S)-butan-2-yl]-12-(2-{(2S)-2-[(1R,2R)-1-methoxy-2-methyl-3-oxo-3-{[(1S)-2-phenyl-1-(1,3-thiazol-2-yl)ethyl]amino}propyl]pyrrolidin-1-yl}-2-oxoethyl)-5,5,10-trimethyl-3,6,9-trioxo-8-(propan-2-yl)-2,13-dioxa-4,7,10-triazatetradec-1-yl]phenyl}-N˜5˜-carbamoyl-L-ornithinamide] (H-[Lac]KV[Cit][PABC][Aib]V[Dil][Dolaproine]-Doe) | 1.08 | 58 | 1.87 | – | – | –
5 | CC[C@H](C)[C@@H]([C@@H](CC(=O)N1CCC[C@H]1[C@H](OC)[C@@H](C)C(=O)N[C@@H](Cc1ccccc1)c1nccs1)OC)N(C)C(=O)[C@@H](NC(=O)C(C)(C)NC(=O)OCc1ccc(NC(=O)[C@H](CCCNC(N)=O)NC(=O)[C@@H](NC(=O)[C@H](CCCCN)NC(=O)[C@@H](C)O)C(C)C)cc1)C(C)C [Example 41, N˜2˜-[(2R)-2-hydroxypropanoyl]-L-lysylvalyl-N-{4-[(8S,11S,12R)-11-[(2S)-butan-2-yl]-12-(2-{(2S)-2-[(1R,2R)-1-methoxy-2-methyl-3-oxo-3-{[(1S)-2-phenyl-1-(1,3-thiazol-2-yl)ethyl]amino}propyl]pyrrolidin-1-yl}-2-oxoethyl)-5,5,10-trimethyl-3,6,9-trioxo-8-(propan-2-yl)-2,13-dioxa-4,7,10-triazatetradec-1-yl]phenyl}-N˜5˜-carbamoyl-L-ornithinamide] (H-[dLac]KV[Cit][PABC][Aib]V[Dil][Dolaproine]-Doe) | 0.91 | 49 | 1.86 | – | – | –
6 | CC[C@H](C)[C@@H]([C@@H](CC(=O)N1CCC[C@H]1[C@H](OC)[C@@H](C)C(=O)N[C@@H](Cc1ccccc1)c1nccs1)OC)N(C)C(=O)[C@@H](NC(=O)C(C)(C)NC(=O)OCc1ccc(NC(=O)[C@H](CCCNC(N)=O)NC(=O)[C@@H](NC(=O)[C@H](CCCCN)NC(=O)[C@@H](O)CO)C(C)C)cc1)C(C)C [Example 42, N˜2˜-[(2S)-2,3-dihydroxypropanoyl]-L-lysylvalyl-N-{4-[(8S,11S,12R)-11-[(2S)-butan-2-yl]-12-(2-{(2S)-2-[(1R,2R)-1-methoxy-2-methyl-3-oxo-3-{[(1S)-2-phenyl-1-(1,3-thiazol-2-yl)ethyl]amino}propyl]pyrrolidin-1-yl}-2-oxoethyl)-5,5,10-trimethyl-3,6,9-trioxo-8-(propan-2-yl)-2,13-dioxa-4,7,10-triazatetradec-1-yl]phenyl}-N˜5˜-carbamoyl-L-ornithinamide] ({Glyceroyl(2S)}-KV[Cit][PABC][Aib]V[Dil][Dolaproine]-Doe) | 1.60 | 85 | 1.87 | – | – | –
7 | CC[C@H](C)[C@@H]([C@@H](CC(=O)N1CCC[C@H]1[C@H](OC)[C@@H](C)C(=O)N[C@@H](Cc1ccccc1)c1nccs1)OC)N(C)C(=O)[C@@H](NC(=O)C(C)(C)NC(=O)OCc1ccc(NC(=O)[C@H](CCCNC(N)=O)NC(=O)[C@@H](NC(=O)[C@H](CCCCN)NC(=O)CCO)C(C)C)cc1)C(C)C [Example 43, N˜2˜-(3-hydroxypropanoyl)-L-lysylvalyl-N-{4-[(8S,11S,12R)-11-[(2S)-butan-2-yl]-12-(2-{(2S)-2-[(1R,2R)-1-methoxy-2-methyl-3-oxo-3-{[(1S)-2-phenyl-1-(1,3-thiazol-2-yl)ethyl]amino}propyl]pyrrolidin-1-yl}-2-oxoethyl)-5,5,10-trimethyl-3,6,9-trioxo-8-(propan-2-yl)-2,13-dioxa-4,7,10-triazatetradec-1-yl]phenyl}-N˜5˜-carbamoyl-L-ornithinamide] ({Propanoyl(3-OH)}-KV[Cit][PABC][Aib]V[Dil][Dolaproine]-Doe) | 1.23 | 76 | 1.62 | – | – | –
8 | CC[C@H](C)[C@@H]([C@@H](CC(=O)N1CCC[C@H]1[C@H](OC)[C@@H](C)C(=O)N[C@@H](Cc1ccccc1)c1nccs1)OC)N(C)C(=O)[C@@H](NC(=O)C(C)(C)NC(=O)OCc1ccc(NC(=O)[C@H](CCCNC(N)=O)NC(=O)[C@@H](NC(=O)[C@H](CCCCN)NS(C)(=O)=O)C(C)C)cc1)C(C)C [Example 44, N˜2˜-(methylsulfonyl)lysyl-L-valyl-N-{4-[(8S,11S,12R)-11-[(2S)-butan-2-yl]-12-(2-{(2S)-2-[(1R,2R)-1-methoxy-2-methyl-3-oxo-3-{[(1S)-2-phenyl-1-(1,3-thiazol-2-yl)ethyl]amino}propyl]pyrrolidin-1-yl}-2-oxoethyl)-5,5,10-trimethyl-3,6,9-trioxo-8-(propan-2-yl)-2,13-dioxa-4,7,10-triazatetradec-1-yl]phenyl}-N˜5˜-carbamoylornithinamide] (Ms-KV[Cit][PABC][Aib]V[Dil][Dolaproine]-Doe) | 0.25 | 17 | 1.50 | 1.74 | 47 | 0.82
9 | CC[C@H](C)[C@@H]([C@@H](CC(=O)N1CCC[C@H]1[C@H](OC)[C@@H](C)C(=O)N[C@@H](Cc1ccccc1)c1nccs1)OC)N(C)C(=O)[C@@H](NC(=O)C(C)(C)NC(=O)OCc1ccc(NC(=O)[C@H](CCCNC(N)=O)NC(=O)[C@@H](NC(=O)[C@H](CCCCN)NS(=O)(=O)c2ccccc2)C(C)C)cc1)C(C)C [Example 45, N˜2˜-(phenylsulfonyl)lysyl-L-valyl-N-{4-[(8S,11S,12R)-11-[(2S)-butan-2-yl]-12-(2-{(2S)-2-[(1R,2R)-1-methoxy-2-methyl-3-oxo-3-{[(1S)-2-phenyl-1-(1,3-thiazol-2-yl)ethyl]amino}propyl]pyrrolidin-1-yl}-2-oxoethyl)-5,5,10-trimethyl-3,6,9-trioxo-8-(propan-2-yl)-2,13-dioxa-4,7,10-triazatetradec-1-yl]phenyl}-N˜5˜-carbamoylornithinamide] (Benzenesulfonyl-KV[Cit][PABC][Aib]V[Dil][Dolaproine]-Doe) | 0 | 0 | 0.66 | 1.42 | 3 | 0.04
